Consider seven molecules from patent US8945864B2, “Method of determining 1,5-anhydroglucitol, and reagent composition for determining 1,5-anhydroglucitol” (Ikeda Food Research Co., Ltd., priority 2006, dated 2015).

Like-named read-outs stand apart in the source and are kept apart here.

For one data set, the target named is sorbose dehydrogenase (Sinorhizobium meliloti, UniProt Q92YU0). In words: Inhibitor test: additive in the reaction solution for the activity measurement. The data set is classed as biochemical, Sinorhizobium sp. 97507.
Substrate in data set [1]: OCC1(O)OC[C@H](O)[C@@H](O)[C@@H]1O
Briefly: Km value of sorbose dehydrogenase. The format is biochemical, Sinorhizobium sp. 97507. Conditions: other: Km of the sorbose dehydrogenase to the substrate; pH 7.0; 37.0 °C. Here is the method:
(§1) One mL of a 0.1 M potassium phosphate buffer, pH 7.0, 1.0 mL of 1.0 M L-sorbose, 0.14 mL of 3 mM 2,6-dichlorophenol indophenol (DCIP), 0.2 mL of 3 mM 1-methoxy-5-methylphenazinium methyl sulfate, and 0.61 mL of water were added to a 3 mL quartz cell, and the quartz cell was set to a spectrophotometer equipped with a thermostat cell holder, and incubated at 37° C. for ten minutes. Then, 0.05 mL of the enzyme solution was added to the quartz cell, and changes in absorbance of DCIP at 600 nm (AABS600/min) was measured at 37° C. As the molar extinction coefficient of DCIP at pH 7.0 is known as 16.3 mM^−1, and the amount of enzyme that reduced 1 μmol of DCIP for one minute is defined as one unit. Following the definition, the concentration of enzyme activity was calculated based on the following equation. enzyme activity (units/mL)=(−ΔABS600/min×3.0×dilution rate)/(16.3×1.0×0.05)
(§2) Measurement conditions in the above “method of measuring enzyme activity” were suitably modified as necessary, and the optimal pH, pH stability, optimal temperature, temperature stability, substrate specificity, Km value, total molecular weight, subunit molecular weight, inhibitor, and product of the enzyme reaction were identified. The properties of the enzyme were evaluated in accordance with the following tests.
[…]. […]

Substrate in data set [2]: OC[C@H]1OC[C@H](O)[C@@H](O)[C@@H]1O
Briefly: Km value of sorbose dehydrogenase. The data set is classed as biochemical, Sinorhizobium sp. 97507. Conditions: other: Km of the sorbose dehydrogenase to the substrate; pH 7.0; 37.0 °C. The method, then: as §1, §2
[…]. […]

Data set [3] in a line: Temperature stability of sorbose dehydrogenase. Conditions: pH 7.0, FIG. 6. The data set is classed as physicochemical.
Data set [4] in a line: Optimal temperature of sorbose dehydrogenase. The data set is classed as biochemical. Conditions: 50 mM potassium phosphate buffer, pH 7.0; 35° C. to 70° C.; FIG. 5.
A short description of data set [5]: Optimal pH of sorbose dehydrogenase. The format is biochemical. Conditions: buffers pH 3.71-9.11, 33.3 mM; FIG. 3.
[6] abbreviates: additive final concentration 1.0 mM, control without additive = 100%.

For the molecule `[Cl-].[Cl-].[Zn+2]` [ZnCl2], the “Relative activity (%)” value on sorbose dehydrogenase (setting [6]) is listed as 98%.
On to `O=C(O)C(O)C(O)C(=O)O` (stereo not drawn) [meso-tartaric acid], for which, on sorbose dehydrogenase (setting [6]), the “Relative activity (%)” value was found to be 94%.
The same measure, in the same setting: the same measure for Acriflavin: 66%.
CoCl2: the “Relative activity (%)” value on sorbose dehydrogenase amounted to 86%.
Regarding Triton X-100, the “Relative activity (%)” value on sorbose dehydrogenase (setting [6]) is recorded as 39%.

B1: sorbose dehydrogenase (Sinorhizobium meliloti 1021) (protein)
chain: MMEGFDYVIVGGGSSGCVLAARLSENPSVRVCLIEAGGRDRHPLIHMPVGFAKLTAGPMTWGLTTAPQKHANNREIPYAQARVLGGGSSINAEVYTRGHPRDYDRWVEEGADGWSFQEVKPYFLRSEGNTILSGEWHGTDGPLGVSNLPDPQPMTRAFVQSCQELGIPYNPDFNGPVQEGAGVYQTTIRNSRRCSAAVGYLRPALARKNLMLITGALVLRIVFQGRRAVGVEYSTGGAAKIARAESEVLVTSGAIGTPKLMMLSGVGPAASLRSHGIDVVQDMAGVGQNLHDHFGVDIVAELKGHDSLDKYNKFHWMLLAGIEYALFKSGPVASNVVEGGAFWYGDRASPYPDLQFHFLAGAGAEAGVPSVPKGSSGVTLNSYTVRPKSRGSVTLRSADPRALPIVDPNFLDDPDDLRISVEGIRISREIFGQPSLQKYIKTIRFPDESVRTQADFEAYARQYGRTSYHPTCTCKMGRDDMSVVDPQLRVHGLDGIRICDSSVMPSLVGSNTNAATIMIGEKAADLIRGNI
As usually defined, the Km is the substrate concentration at which the rate is half of its maximum. For the molecule B1, the Michaelis-Menten constant (Km) is given as 65.6 mM in data set [1] and 82.5 mM in data set [2].

B2: sorbose dehydrogenase: recombinant sorbose dehydrogenase from Sinorhizobium sp. 97507, amino acid sequence SEQ ID NO: 2, produced in E. coli JM109/pUCNNT2_AGD1 (protein)
chain: MMEGFDYVIVGGGSSGCVLAARLSENPSVRVCLIEAGGRDRHPLIHMPVGFAKLTAGPMTWGLTTAPQKHANNREIPYAQARVLGGGSSINAEVYTRGHPRDYDRWVEEGADGWSFQEVKPYFLRSEGNTILSGEWHGTDGPLGVSNLPDPQPMTRAFVQSCQELGIPYNPDFNGPVQEGAGVYQTTIRNSRRCSAAVGYLRPALARKNLMLITGALVLRIVFQGRRAVGVEYSTGGAAKIARAESEVLVTSGAIGTPKLMMLSGVGPAASLRSHGIDVVQDMAGVGQNLHDHFGVDIVAELKGHDSLDKYNKFHWMLLAGIEYALFKSGPVASNVVEGGAFWYGDRASPYPDLQFHFLAGAGAEAGVPSVPKGSSGVTLNSYTVRPKSRGSVTLRSADPRALPIVDPNFLDDPDDLRISVEGIRISREIFGQPSLQKYIKTIRFPDESVRTQADFEAYARQYGRTSYHPTCTCKMGRDDMSVVDPQLRVHGLDGIRICDSSVMPSLVGSNTNAATIMIGEKAADLIRGNI
modifications: Sinorhizobium sp. 97507
For the molecule B2, in data set [3] (45° C. for ten minutes), the “Residual ratio of enzyme activity” value was 77%. Moreover, in data set [3] (ten minutes), the “Temperature at which the enzyme is stable” value was at most 45 °C. Further, in data set [4], the Optimal temperature result was “around 60 °C”. For the same molecule, the “Optimal pH” value in data set [5] was determined as 8.0.
